B1: BMPRII (BMP receptor 2 extracellular domain linked to the human IgG Fc region) (Fc fusion, UniProt Q13873 27-150, looked up)
chain: SQNQERLCAFKDPYQQDLGIGESRISHENGTILCSKGSTCYGLWEKSKGDINLVKQGCWSHIGDPQECHYEECVVTTTPPSIQNGTYRFCCCSTDLCNVNFTENFPPPDTTPLSPPHSFNRDET
notes: BMP receptor type 2 (BMPR2, BMPRII), type II receptor, extracellular domain; printed as 'BMPRII' without '-Fc' in the list of Fc fusion proteins; also called BMPR2; BMPR-2; source: synthesized in-house
B2: recombinant human bone morphogenetic protein 12 (rhBMP12) (ligand, UniProt Q7Z4P5 322-450, looked up)
chain: TALAGTRTAQGSGGGAGRGHGRRGRSRCSRKPLHVDFKELGWDDWIIAPLDYEAYHCEGLCDFPLRSHLEPTNHAIIQTLLNSMAPDAAPASCCVPARLSPISILYIDAANNVVYKQYEDMVVEACGCR
notes: bone morphogenetic protein 12 (BMP12, also known as GDF7), human, mature form; homodimer by non-reducing SDS-PAGE
B3: recombinant human bone morphogenetic protein 2 (rhBMP2) (ligand, UniProt P12643 283-396, looked up)
chain: QAKHKQRKRLKSSCKRHPLYVDFSDVGWNDWIVAPPGYHAFYCHGECPFPLADHLNSTNHAIVQTLVNSVNSKIPKACCVPTELSAISMLYLDENEKVVLKNYQDMVVEGCGCR
notes: bone morphogenetic protein 2, human, mature domain; homodimer by non-reducing SDS-PAGE; source: CHO cells, purified (as in Wang et al. 1990)
B4: recombinant human bone morphogenetic protein 13 (rhBMP13) (ligand, UniProt Q6KF10 336-455, looked up)
chain: TAFASRHGKRHGKKSRLRCSKKPLHVNFKELGWDDWIIAPLEYEAYHCEGVCDFPLRSHLEPTNHAIIQTLMNSMDPGSTPPSCCVPTKLTPISILYIDAGNNVVYKQYEDMVVESCGCR
notes: bone morphogenetic protein 13 (BMP13, also known as GDF6), human, mature form; homodimer by non-reducing SDS-PAGE

Tests used:
[1] = target: B2; test: BLI; receptor extracellular domain-Fc chimeras immobilised on anti-human IgG Fc biosensor tips (ForteBio Octet RED); sixfold serial dilutions of human BMPs in solution; association 10 min, dissociation 30 min; global fit to a 1:1 Langmuir model; settings: both partners purified
[2] = target: B4; test: as above; settings: both partners purified
[3] = target: B3; test: as above; settings: both partners purified
[4] = target: the molecule itself; test: non-reducing SDS-PAGE; purified proteins on 12% polyacrylamide gels under non-reducing against reducing (β-mercaptoethanol) conditions, Coomassie blue staining
[5] = target: T1, ALK3-Fc (activin receptor-like kinase 3 extracellular domain linked to the human IgG Fc region) (UniProt P36894 24-152); test: BLI; receptor extracellular domain-Fc chimeras immobilised on anti-human IgG Fc biosensor tips (ForteBio Octet RED); sixfold serial dilutions of human BMPs in solution; association 10 min, dissociation 30 min; global fit to a 1:1 Langmuir model; settings: both partners purified
T1 construct: activin receptor-like kinase 3 (ALK3), type I BMP receptor, extracellular domain; source: bought: R&D Systems

[6] = target: B1; test: as above; settings: both partners purified

T1 sequence (P36894 24-152): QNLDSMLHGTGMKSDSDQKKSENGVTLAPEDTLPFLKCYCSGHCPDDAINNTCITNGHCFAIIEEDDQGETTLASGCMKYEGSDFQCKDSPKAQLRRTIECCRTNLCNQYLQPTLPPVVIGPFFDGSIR

Kd [1] | koff [1] | kon [1] | Kd [2] | koff [2] | kon [2] | Kd [5] | koff [5] | kon [5] | Binder | stoichiometry N [4] | further results
52.1 nM | 0.322 s⁻¹ | 9.26e+06 M⁻¹ s⁻¹ | – | – | – | – | – | – | B1 | – | –
1 nM | 0.0138 s⁻¹ | 1.29e+07 M⁻¹ s⁻¹ | 1.6 nM | 0.0041 s⁻¹ | 2.59e+06 M⁻¹ s⁻¹ | – | – | – | ACVR2B-Fc (activin receptor type-2B extracellular domain linked to the human IgG Fc region) (Fc fusion, UniProt Q13705 19-137, looked up, activin receptor type-2B (ACVR2B), type II receptor, extracellular domain; source: synthesized in-house) SGRGEAETRECIYYNANWELERTNQSGLERCEGEQDKRLHCYASWRNSSGTIELVKKGCWLDDFNCYDRQECVATEENPQVYFCCCEGNFCNERFTHLPEAGGPEVTYEPPPTAPTLLT | – | –
0.6 nM | 0.004 s⁻¹ | 6.48e+06 M⁻¹ s⁻¹ | 0.5 nM | 0.0038 s⁻¹ | 7.69e+06 M⁻¹ s⁻¹ | – | – | – | ALK6-Fc (activin receptor-like kinase 6 extracellular domain linked to the human IgG Fc region) (Fc fusion, UniProt O00238 14-126, looked up, activin receptor-like kinase 6 (ALK6), type I BMP receptor, extracellular domain; source: synthesized in-house) KKEDGESTAPTPRPKVLRCKCHHHCPEDSVNNICSTDGYCFTMIEEDDSGLPVVTSGCLGLEGSDFQCRDTPIPHQRRSIECCTERNECNKDLHPTLPPLKNRDFVDGPIHHR | – | Kd [3]: 1.6 nM; koff [3]: 0.0064 s⁻¹; kon [3]: 4.28e+06 M⁻¹ s⁻¹
– | – | – | – | – | – | 3.4 nM | 0.0164 s⁻¹ | 5.07e+06 M⁻¹ s⁻¹ | B2 | 2 | –
– | – | – | – | – | – | – | – | – | B3 | 2 | –
– | – | – | – | – | – | 1.7 nM | 0.0084 s⁻¹ | 4.97e+06 M⁻¹ s⁻¹ | B4 | 2 | Kd [6]: 28.1 nM; koff [6]: 0.16 s⁻¹; kon [6]: 5.7e+06 M⁻¹ s⁻¹

Reference: PMC3154542 (Growth Factors (Chur, Switzerland), 2011)
